Tests used:
[1] = molecular target: T1, SahH (Psilocybe cubensis, UniProt A0ACB8GS59); experiment: inhibition of SAH hydrolysis; format: biochemical; settings: hydrolytic direction
T1 sequence (A0ACB8GS59 1-430): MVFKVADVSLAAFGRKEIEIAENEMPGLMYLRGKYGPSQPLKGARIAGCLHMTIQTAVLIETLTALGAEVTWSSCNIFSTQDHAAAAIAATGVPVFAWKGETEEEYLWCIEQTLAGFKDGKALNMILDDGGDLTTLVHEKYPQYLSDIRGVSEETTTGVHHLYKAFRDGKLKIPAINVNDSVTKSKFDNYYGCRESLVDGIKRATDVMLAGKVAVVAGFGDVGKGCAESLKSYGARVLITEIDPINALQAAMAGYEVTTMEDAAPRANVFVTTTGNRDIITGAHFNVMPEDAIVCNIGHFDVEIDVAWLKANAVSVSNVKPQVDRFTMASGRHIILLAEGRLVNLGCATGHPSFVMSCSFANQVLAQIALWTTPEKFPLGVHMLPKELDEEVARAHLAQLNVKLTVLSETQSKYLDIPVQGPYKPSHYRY

[2] = molecular target: PsiM (Psilocybe cubensis, UniProt P0DPA9); experiment: UHPLC-MS quantification of baeocystin and psilocybin; format: biochemical; settings: 3 mM SAM, 1 mM norbaeocystin, 1 μM PsiM, pH 8.0, 25 °C; competitive
[3] = molecular target: T1, SahH; experiment: Ellman's reagent; format: biochemical; settings: hydrolytic direction, 100 μM NAD+, pH 7.8, 34 °C
[4] = substrate: Nc1ncnc2c1ncn2[C@@H]1O[C@H](CO)[C@@H](O)[C@H]1O; experiment: purified protein
[5] = substrate: Nc1ncnc2c1ncn2[C@@H]1O[C@H](COP(=O)(O)OP(=O)(O)OP(=O)(O)O)[C@@H](O)[C@H]1O; experiment: purified protein; settings: adenosine co-substrate, 10 mM MgCl2, pH 7.8, 30 °C
[6] = substrate: N[C@@H](CCS)C(=O)O; experiment: purified protein; settings: synthetic direction, co-substrate adenosine
[7] = ATP co-substrate, 10 mM MgCl2, pH 7.8, 30 °C
[8] = synthetic direction, co-substrate L-homocysteine

In the case of `Nc1ncnc2c1ncn2[C@@H]1O[C@H](CO)[C@@H](O)[C@H]1O` [Ado], the inhibition ([1]; product inhibition) is reported as “SAH hydrolysis is strongly inhibited by elevated Ado concentrations”.

`Nc1ncnc2c1ncn2[C@@H]1O[C@H](CSCC[C@H](N)C(=O)O)[C@@H](O)[C@H]1O` [SAH] was tested, and the “inhibition at 1-16 mM” value [2] was “SAH competitively inhibited PsiM′s activity in a concentration‐dependent manner” and the Km [3] was 57.2 µM.

For `Nc1ncnc2[nH]cnc12` [Ade], the inhibition ([1]; tenfold excess over SAH) was “to a lower extent—by tenfold excess of Ade over the SAH substrate”.

B1: AdoK (Psilocybe cubensis) (protein)
chain: MSAPSYSLFCMGNPLLDMQVRNGEQLLEKYGLKANDAILADEKQSEIYDELVKEHQVTYVAGGAAQNAARGAAYILPPGSVVYTGAVGDDELAEQLKAANKREGLDQVYQVKKGEKTGACAVVITGHHRSLVTTLRVAEKFEKSHLSSPEVAPLVENAKFFYIEGYFLTHGVESALELSSKASAAGKTFVMNLSAPFIAQFFGEQLNQILPHTDIIIGNEAEAEAWATAHNYASTTDLASIAKQIALLPKSNPARPRVVVFTHGAQSTVLVSADRPDEARVFAVDVLADDKIVDTNGAGDAFAGGFVGALVAGKDLEGAVLAGHALARQCVQQVGPQYPWPKVDIL
For B1, the Km [4, 7] was 33.6 µM, the kcat [4, 7] was 1400 s⁻¹ and the kcat/Km [4, 7] was 4.2e+07 M⁻¹ s⁻¹. For the same molecule, the Km [5] was 11.6 µM, the kcat [5] was 1400 s⁻¹ and the kcat/Km [5] was 1.2e+08 M⁻¹ s⁻¹.

B2: SahH (Psilocybe cubensis) (protein)
chain: T1 sequence (A0ACB8GS59 1-430)
B2 was tested, and the Km [4, 8] was 56.7 µM, the kcat [4, 8] was 1.8 s⁻¹ and the kcat/Km [4, 8] was 31000 M⁻¹ s⁻¹. For the same molecule, the Km [6] was 19.8 µM, the kcat [6] was 1.8 s⁻¹ and the kcat/Km [6] was 91000 M⁻¹ s⁻¹.

Reference: paper PMC7317531 (Chembiochem, 2020)
